Measured values published in the RNAGym collection of RNA variant scans (doi:10.1073/pnas.2313332121).

B1: TPR t1 (parent)
chain: GACCAAUCUGCCCUCAGAGCUCGAGAACAUCUUCGGAUGCAGAGGAGGCAGGCUUCGGUGGCGCGAUAGCGCCAACGUCCUCAACCUCCAAUGCAUCCCACCACAUGAUGAUGCCUGAAGAGCCUUGGUUUUUUG

Variants of: B1
Assay: polymerase ribozyme fitness, log enrichment relative to wild type (log ratio); higher = more active; in vitro selection for triplet polymerase activity
Method in brief: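 Only genotypes with ≥10 input reads and ≥1 read per output were kept after Illumina sequencing of input and output libraries. These libraries were PCR-built, transcribed mutants of each subunit of a heterodimeric triplet polymerase ribozyme, each put through one triplicate in vitro selection round with frozen incubation at −7 °C, gel excision of extended constructs, streptavidin-bead capture and RT-PCR. Fitness is a logarithmic ratio of genotype enrichment to wild-type enrichment, from inverse-variance-weighted replicate averages, with the logarithm in base 2.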

Variant | polymerase ribozyme fitness (log ratio)
A5G C88A A91C C114G A121C | -0.389
A5C A26G C88U U116C U129A | -6.24
A5U C13A C15G C56A A121U | -1.44
A6G A24C C88G C102A A111U G122C U133G | -6.51
A5C C56G | -1.73
A5C A27G G63C A121G | 0.00315
A5U G120U | 0.128
A6G C8U C98G | -4.61
A5U G71C | -2.73
A5C A18C | -2.78
A5G A37G C53U A105G U112G U125G G135U | -5.89
A5C C13U G60U | -0.844
A5U C73A | -0.847
A6G C8G C12A C28A C56G U81C U112A | -4.51
A5G A43C G44C G52C C73U U109A C114U C115A | -6.36
A6G C11G A118U | 0.0523
C4U G69A C89U C123G | -3.15
C4U G17C G48A G69C G120C | -4.5
A5C A16G C20U A43G A121G | -0.652
A5U G47C C62U G113C A118U | -4.96
A6C A27G C49U C79A U81A | -6.28

Variant | polymerase ribozyme fitness (log ratio)
A5U C40G G71U U87G | -3.8
A5C C34A G42C C88U | -5.7
A5C A43U U78C G93C | -4.85
A5U G19A G57U U78G G113U G135U | -4.71
A5G A29U G48C U112G | -4.65
A6G C15U C56U G69U U112A G117A | -1.54
A5G C56G | -0.49
A5G C13A G48C C73A U112A G120C | -0.914
C4U G52A C62U C82G G120C | -0.476
A5G C64U C85U | -1.64
A5C G63C C94A G113C G122U | -4.6
A5U G63U A75U | -0.67
A5G C56A A74G C97U C123A | 0.643
A5G C40U G45U A50C U125A | -4.22
A6C G42U C79U A90C | -0.731
A5C C82A U126G | -0.956
A5U C53A C62A G110U U130C | -4.41
A5G C13A C53U U59G G69C | -4.36
A5G G48U C73A C97A | -5.81
A6G C64U | 0.116
A5C C22G C56G C123U | -4.43

Variant | polymerase ribozyme fitness (log ratio)
A6C C97A | -4.04
A5G A41G A50U C72U A75U G93A U112A G113C | -3.59
A5U C15A | -2.36
A6G C11G C70G A118U | -1.53
A6C G42C | -1.69
A5C U87G C101U | -0.776
A5C C56G C80U | -1.77
A6C G93A | -1.25
A5C C82G U92G U130G | -4.87
A5U G71A C98U G127A G128U | -5.31
A5G C82U C97U C124G U126A | -0.153
C4U U14A C73U | -4.13
A5C A43G C53U G63C G113C | -3.6
A6G C11U G48C C64U G113A G117A | -7.08
A5U G48U | -1.69
C4U C85U | -1.63
A5U G39U G45U C82A C123A | -2.8
A6G C40U G51U | -4.1
A5G A6C A43G C72U | -2.46
A6C C13G G17A A18G | -4.66
C4U C72A | -0.193

Variant | polymerase ribozyme fitness (log ratio)
A5C C53G U96A C123U | -0.893
A5G C49A C53U C85A G135U | -3.84
A5U G61U | -0.313
A5U U14C A50U C72A C124A U131G | -1.27
A5C C123G | 1.35
A5C A26U C62U | -4.3
A5G G44A G45U G63U C79U C124A | -1.7
A5U C11A G42C C88U U106A A121C U125A | -1.65
A6G C72G C88U | -0.419
A5C C12G C49A A83C | -0.122
A6C C40U G107U C124U | -4.44
A5C U78C G127C U129C | -2.19
C4U G36U C73U G127A | -2.05
A6C C101A | -1.63
A5U C49A A95G | -0.603
A5U C8G C20U C40A | -3.31
A5G C13A A46U G63A U133A | -2.84
A5U G63U C102A | -3.19
A6C A41G C70U G117U | -7.14
A5U G57A C70U | -1.67
A5G G117C | -3.71
